Reference: US8030048B2, “Enantioselective epoxide hydlrolase and method for preparing and enantiopure epoxide using the same” (Korea Ocean Research and Development Institute, priority 2005, dated 2011)
Where “and” joins values, the source holds several entries; their conditions need not be identical. Equal entries are not always repeated.

B1: Erythrobacter litoralis HTCC2594 epoxide hydrolase rEEH3 (EEH3), SEQ ID NO: 17 (Erythrobacter litoralis HTCC2594) (protein)
chain: MPDPASGIAINRVPANGLEFEVAMAGEGDHLALMLHGFPELHFSWRHQMPLLAEMGYRVWAPNMRGYGETTRPTEVRDYALDHLTQDVAALIDASGATKVTLIAHDWGAIIAWYFAILKLRPLERLVIMNVPHPKVLQRELRRWEQIKKSWYVFFFQLPWLPEKRIGADSGKRIGELFAQTSCNPERFGPDVKAVYAAGAARPGAPRAMVNYYRAAMRHRDTIDPGDFRVDVPTLLVWGEEDVALNIRCTEGTEQWVPDITVKRLPNVSHWVQQDAPDEVNAILREWLPKPAPAS
notes: soluble-EH-like alpha/beta hydrolase
B2: Erythrobacter litoralis HTCC2594 epoxide hydrolase rEEH1 (EEH1), SEQ ID NO: 13 (Erythrobacter litoralis HTCC2594) (protein)
chain: MSEIRPFVLDVPKADLDRLHRKLDDTRWPEKEPVDDWSQGTPLAALQDLAAYWRDGYDWRAGEAKLNALGQFITEIDGLDIHFLHVRSKCDDALPLILTHGWPGSVREFFDVIPLLTEPQDGMAFHVVAPSLPGFGFSGKPRNTGWGVDKIATAWATLMQRLGYTEWVAQGGDWGSAVTTAIGAQAPEGCKGIHVNMPIGRPGPDDMANPGPDELKALKALKFYQDWDSGYSKQQSTRPQTIGYSLVDSPVGLAGWIFEKMFFWTDNGGSPFDTLSMDAILDNIMLYWLPETGASAARLYWESFARFGEGTVAIPAGVSAFPKEIIPAPRKWAERRYADLVYWNECEKGGHFAAWEQPELFAAELRACFSLMR
notes: microsomal-EH-like

Key:
[1] = molecular target: T1, Erythrobacter litoralis HTCC2594 epoxide hydrolase rEEH1 (EEH1), SEQ ID NO: 13 (Erythrobacter litoralis, UniProt Q2NAV3); assay: Kinetic parameters of purified rEEH1 by GC analysis with (R)- or (S)-styrene oxide; format: biochemical; details: 100 mM potassium phosphate pH 8.0, 30° C.
T1 construct: microsomal-EH-like
T1 sequence (Q2NAV3 1-373): B2 chain
Protocol: (§1) Kinetic parameters of the rEEH1, rEEH2, rEEH3, sEEH, nEEH, and rEEH were determined by a GC analysis using (R)- or (S)- styrene oxide substrate. 100 ul of purified EHases were mixed with various concentrations of (R)- or (S)- styrene oxide in a 10 ml tube containing 1 ml of potassium phosphate buffer (100 mM, pH 8.0), and shake-incubated at 200 rpm and a temperature of 30° C. The extraction mixtures were extracted with 2 ml of hexane, and enantiomeric excess [ee; ee=100×(S−R)/(S+R)] toward enantiopure styrene oxide was analyzed with a chiraldex gamma-cyclodextrin trifluoroacetyl(G-TA) capillary GC column. Wherein, the FIG. 8 was diagramed with GC analysis for the hydrolyzing activities of enantioselective EHases (rEEH1, rEEH2, and rEEH3) toward racemic styrene oxide.
(§2) Kinetic parameters were estimated by non-linear regression analysis using a Sigma Plot program, and various substrates as depicted in FIG. 1 were also tested for the enantioselective hydrolyzing activity by rEEH1, rEEH2, rEEH3, sEEH, nEEH, and rEEH.

[2] = Effects of pH and temperature on the EHase activity of rEEH1, rEEH2 and rEEH3; format: biochemical; details: for optimum temperature (maximum hydrolysis rate): 10 to 70° C. at pH 7.5; for optimum pH: activity toward styrene oxide, pH 4.0 to 10.0
Protocol: The effect of pH on the EHase activity was measured with 50 mM sodium acetate-acetic acid buffer (pH 4.0 and 6.0), 50 mM MES buffer (pH 6.0 to 7.0), 50 mM Phosphate buffer (pH 7.0 to 9.0), and 50 mM Glycine buffer (pH 9.0 and 10.0), and the optimum reaction temperature on the EHase activity was measured over a temperature of range from 10 to 70° C. at pH 7.5.

[3] = Kinetic parameters of purified EHases by GC analysis, (S)-styrene oxide; format: biochemical; details: (S)-enantiomer of styrene oxide, Table 5
Protocol: as §1, §2

[4] = Kinetic parameters of purified EHases by GC analysis, (R)-styrene oxide; format: biochemical; details: (R)-enantiomer of styrene oxide, Table 5
Protocol: as §1, §2

[5] = Enantioselective hydrolyzing activity of purified EHases toward SO; format: biochemical; details: for Hydrolysis rate SO (R): (R)-enantiomer; for Hydrolysis rate SO (S): (S)-enantiomer; for enantiomer preference in hydrolysis of styrene oxide, in words: purified enzyme
Protocol: as §1, §2

[6] = Enantioselective hydrolyzing activity of purified EHases toward GPE; format: biochemical; details: for Hydrolysis rate GPE (R): (R)-enantiomer; for Hydrolysis rate GPE (S): (S)-enantiomer
Protocol: as §1, §2

[7] = Enantioselective hydrolyzing activity of purified EHases toward EX; format: biochemical; details: for Hydrolysis rate EX (R): (R)-enantiomer; for Hydrolysis rate EX (S): (S)-enantiomer
Protocol: as §1, §2

[8] = Enantioselective hydrolyzing activity of purified EHases toward EB; format: biochemical; details: for Hydrolysis rate EB (R): (R)-enantiomer; for Hydrolysis rate EB (S): (S)-enantiomer
Protocol: as §1, §2

[9] = Enantioselective hydrolyzing activity of purified EHases toward ECH; format: biochemical
Protocol: as §1, §2

[10] = Substrate selectivity of rEEH1, rEEH2 and rEEH3 toward various epoxide substrates; format: biochemical; details: purified enzyme
Protocol: Also, the substrate selectivity of rEEH1, rEEH2 and rEEH3 toward various epoxide substrates depicted in FIG. 1 was same to Table 4.
as §2

[11] = substrate: c1ccc([C@@H]2CO2)cc1; assay: Kinetic parameters of purified rEEH3 by GC analysis with (R)- or (S)-styrene oxide; format: biochemical, Erythrobacter litoralis HTCC2594; details: other: 100 mM potassium phosphate pH 8.0, 30° C.
Protocol: as §1, §2

[12] = substrate: c1ccc([C@H]2CO2)cc1; assay: as above; format: biochemical, Erythrobacter litoralis HTCC2594; details: other: 100 mM potassium phosphate pH 8.0, 30° C.
Protocol: as §1, §2

[13] = Enantioselective hydrolyzing activity of purified EHases toward EF; format: biochemical
Protocol: as §1, §2

[14] = substrate: c1ccc([C@@H]2CO2)cc1; assay: Kinetic parameters of purified rEEH1 by GC analysis with (R)- or (S)-styrene oxide; format: biochemical, Erythrobacter litoralis HTCC2594; details: other: 100 mM potassium phosphate pH 8.0, 30° C.
Protocol: as §1, §2

[15] = substrate: c1ccc([C@H]2CO2)cc1; assay: as above; format: biochemical, Erythrobacter litoralis HTCC2594; details: other: 100 mM potassium phosphate pH 8.0, 30° C.
Protocol: as §1, §2

| Molecule | Vmax [1] | optimum temperature (maximum hydrolysis rate) [2] | optimum pH [2] | kcat Km [3] | kcat Km [4] | Hydrolysis rate SO (R) [5] | Hydrolysis rate SO (S) [5] | enantiomer preference in hydrolysis of styrene oxide, in words [5] | Hydrolysis rate GPE (R) [6] | Hydrolysis rate GPE (S) [6] | Hydrolysis rate EX (R) [7] | Hydrolysis rate EX (S) [7] | Hydrolysis rate EB (R) [8] | Hydrolysis rate EB (S) [8] | substrate selectivity, in words [10] | other results |
| --- | --- | --- | --- | --- | --- | --- | --- | --- | --- | --- | --- | --- | --- | --- | --- | --- |
| c1ccc([C@@H]2CO2)cc1 [(R)-styrene oxide] | 2.3 µmol/min |  |  |  |  |  |  |  |  |  |  |  |  |  |  |  |
| c1ccc([C@H]2CO2)cc1 [(S)-styrene oxide] | 1.18 µmol/min |  |  |  |  |  |  |  |  |  |  |  |  |  |  |  |
| B1 |  | 45 °C | 8.0 | 1700 M⁻¹ s⁻¹ | 1600 M⁻¹ s⁻¹ | 0.10 (×10^−2) mg/min | 0.14 (×10^−2) mg/min | (S)-styrene oxide was hydrolyzed faster than (R)-styrene oxide | 0.10 (×10^−2) mg/min | 0.10 (×10^−2) mg/min | 0.17 (×10^−2) mg/min | 0.09 (×10^−2) mg/min | 0.08 (×10^−2) mg/min | 0.11 (×10^−2) mg/min | hydrolyzed enantioselectively aliphatic epoxides at C-1 position and styrene oxide | Hydrolysis rate ECH (R) ([9]; (R)-enantiomer): 0.26 (×10^−2) mg/min; Hydrolysis rate ECH (S) ([9]; (S)-enantiomer): 0.28 (×10^−2) mg/min; Km [11]: 2610 µM and 2600 µM; Vmax [11]: 0.29 µmol/min and 0.2 µmol/min; kcat [11]: 4.3 s⁻¹; Km [12]: 3710 µM and 3700 µM; Vmax [12]: 0.43 µmol/min and 0.4 µmol/min; kcat [12]: 6.5 s⁻¹ |
| B2 |  | 50 °C | 6.5 | 10600 M⁻¹ s⁻¹ | 16300 M⁻¹ s⁻¹ | 28.0 (×10^−2) mg/min | 9.00 (×10^−2) mg/min | (R)-styrene oxide was hydrolyzed faster than (S)-styrene oxide | 11.0 (×10^−2) mg/min | 20.0 (×10^−2) mg/min | 7.00 (×10^−2) mg/min | 8.00 (×10^−2) mg/min | 15.0 (×10^−2) mg/min | 15.0 (×10^−2) mg/min | hydrolyzed enantioselectively toward monosubstituted epoxides with bulky ring at C-1 position | Hydrolysis rate EF (R) ([13]; (R)-enantiomer): 4.00 (×10^−2) mg/min; Hydrolysis rate EF (S) ([13]; (S)-enantiomer): 15.0 (×10^−2) mg/min; Km [14]: 2900 µM; Vmax [14]: 2.3 µmol/min; kcat [14]: 49.1 s⁻¹; Km [15]: 2300 µM; kcat [15]: 24.5 s⁻¹ |
